Reference: patent publication US20130059772A1, “Use of Repeat Sequence Protein Polymers in Personal Care Compositions” (DANISCO US INC., priority 2003, published 2013)

Legend:
[1] = tested on: cultured dermal fibroblasts; experiment: UVB protection, follow-up MTT assay (pretreatment protocols); type: cell-based, human; conditions: UVB control 79 ± 19
Protocol: Two sets of duplicate cells were prepared using the four treatment protocols outlined in Table 24. One set of cells was used for an MTT assay while the other set of cells was used to measure the formation of ROS using the fluorescent DCF dye indicator.
For this follow up study, the material was tested at concentrations of 0.14% and 0.014%. During the pretreatment phase, the test material was diluted in FGM (for treatments 1 and 2). […] For the MTT assay, cells that were not exposed to UVB or treated with test materials were used to represent 100% cell viability.

[2] = tested on: cultured dermal fibroblasts; experiment: UVB protection, initial MTT assay (material applied after UVB); conditions: 0.14%, −UVB condition
Protocol: In these experiments, the test material was tested at six concentrations with two duplicate sets of cells prepared. […] Changes in cell viability were then determined 48 hours post material application via an MTT assay, as described above.
Fibroblasts were seeded into the individual wells of a 96 well plate in 100 μl FGM, and incubated overnight at 37±2° C. and 5±1% CO2. On the following day, the media were removed via aspiration to eliminate any non-adherent cells and replaced with 100 μl of fresh FGM. The cells were grown until confluent, with a media change every 48 to 72 hours.
An UVLM-26 lamp was used as the source of UVB light. UV light intensity was measured using a UVX radiometer coupled to a UVB sensor probe (UV Products) to determine the time required to deliver an approximate dose of 50 mj/cm^2. Prior to UVB exposure, the FGM was replaced with 100 μl PBS. After exposure, the PBS was removed and replaced with FGM supplemented with either the test materials, 20 μM Trolox, or left unsupplemented. A duplicate set of cells was also prepared and treated as described above, with the exception that they were not exposed to UVB light. […] The cells were allowed to incubate with the test materials for 48 hours, and then changes in cell viability were determined via an MTT assay. […]
After the 48-hour incubation, the cell culture medium was removed and the fibroblasts were washed with PBS to remove any remaining test material. […] The 96-well plate was then read at 540 nm using isopropyl alcohol as a blank.
The mean MTT absorbance value for the negative control cells (non-UVB exposed and non test material treated cells) was calculated and used to represent 100% value for cell number. The individual MTT values from the cells undergoing the various treatments was then divided by the mean value for the negative control cells and expressed as a percent, to determine the change in cell viability caused by each treatment. MTT scores for each treatment are expressed as means±the standard deviation of the mean.

B1: GC2596-26-D: SELP47K modified with two units of ALSYP (SEQ ID NO:36) peptides in each SELP47K unit; SEQ ID NO:32 (Example 4) (protein)
chain: MDPVVLQRRDWENPGVTQLNRLAAHPPFASDPMGAGAGSGAGAGSALSYPGVGVPGVGVPGVGVPGVGVPGKGVPGVGVPGVGVPGVGVPALSYPGAGAGSGAGAGSGAGAGSGAGAGSALSYPGVGVPGVGVPGVGVPGVGVPGKGVPGVGVPGVGVPGVGVPALSYPGAGAGSGAGAGSGAGAGSGAGAGSALSYPGVGVPGVGVPGVGVPGVGVPGKGVPGVGVPGVGVPGVGVPALSYPGAGAGSGAGAGSGAGAGSGAGAGSALSYPGVGVPGVGVPGVGVPGVGVPGKGVPGVGVPGVGVPGVGVPALSYPGAGAGSGAGAGSGAGAGSGAGAGSALSYPGVGVPGVGVPGVGVPGVGVPGKGVPGVGVPGVGVPGVGVPALSYPGAGAGSGAGAGSGAGAGSGAGAGSALSYPGVGVPGVGVPGVGVPGVGVPGKGVPGVGVPGVGVPGVGVPALSYPGAGAGSGAGAGSGAGAGSGAGAGSALSYPGVGVPGVGVPGVGVPGVGVPGKGVPGVGVPGVGVPGVGVPALSYPGAGAGSGAGAGSGAGAGSGAGAGSALSYPGVGVPGVGVPGVGVPGVGVPGKGVPGVGVPGVGVPGVGVPALSYPGAGAGSGAGAGSGAGAGSGAGAGSALSYPGVGVPGVGVPGVGVPGVGVPGKGVPGVGVPGVGVPGVGVPALSYPGAGAGSGAGAGSGAGAGSGAGAGSALSYPGVGVPGVGVPGVGVPGVGVPGKGVPGVGVPGVGVPGVGVPALSYPGAGAGSGAGAGSGAGAGSGAGAGSALSYPGVGVPGVGVPGVGVPGVGVPGKGVPGVGVPGVGVPGVGVPALSYPGAGAGSGAGAGSGAGAGSGAGAGSALSYPGVGVPGVGVPGVGVPGVGVPGKGVPGVGVPGVGVPGVGVPALSYPGAGAGSGAGAGSGAGAGSGAGAGSALSYPGVGVPGVGVPGVGVPGVGVPGKGVPGVGVPGVGVPGVGVPALSYPGAGAGSGAGAGSGAGAMDPGRYQDLRSHHHHHH
modifications: SELP 47K-P4
B1 was tested, and the “Percent Viability” value ([1]; T1 (24 hour pretreatment, absent during UVB, present 48 hours after) 0.014%) was 85 ± 7%, the “Percent Viability” value ([1]; T1 (24 hour pretreatment, absent during UVB, present 48 hours after) 0.14%) was 122 ± 20% and the “Percent Viability” value ([1]; T2 (24 hour pretreatment, present during UVB and 48 hours after) 0.014%) was 78 ± 4%. For the same molecule, the “Percent Viability” value ([1]; T2 (24 hour pretreatment, present during UVB and 48 hours after) 0.14%) was 126 ± 25%, the “Percent Viability” value ([1]; T3 (present only 48 hours after UVB) 0.014%) was 88% and the “Percent Viability” value ([1]; T3 (present only 48 hours after UVB) 0.14%) was 97 ± 14%. The “Percent Viability” value ([1]; T3 (present only 48 hours after UVB) 0.14%, listed as 2596-26-D) was roughly 100%, the “Percent Viability” value ([1]; T4 (no pretreatment, present during UVB and 48 hours after) 0.014%) was 86 ± 6% and the “Percent Viability” value ([1]; T4 (no pretreatment, present during UVB and 48 hours after) 0.14%) was 121 ± 19%. The “number of viable cells greater than −UVB untreated cells” value [2] was 54%.
